Experiments:
[1] = target: T1, N-terminal NanoLuc-tagged EGFR (NLuc-EGFR) (human, UniProt P00533 25-1210); conditions: one partner purified
T1 construct: ORF from the Kazusa DNA Research Institute; NanoLuc fused to its N-terminus via a Gly-Ser-Ser-Gly linker; signal peptide of IL-6 before NanoLuc; Vector pNKF1-secN CMV; The abstract says HEK293T, the methods HEK293; also called full-length N-terminal nanoluciferase-EGFR; NanoLuc-EGFR; source: HEK293 cells, stably transfected, on living cells; not shown: NanoLuc, N-terminal, kept

[2] = target: T1, N-terminal NanoLuc-tagged EGFR …; assay: FRET or BRET; NanoBRET displacement of 3 nM EGF-AF488 by unlabelled EGFR ligands on living HEK293 cells expressing NLuc-EGFR; added simultaneously, 30 min at 37 °C; HBSS with 0.2% BSA; Ki from IC50 by Cheng-Prusoff; pKi is the negative log10; conditions: one partner purified
[3] = target: T1, N-terminal NanoLuc-tagged EGFR …; assay: cell-based or functional assay

pIC50 [1]	pKi [2]	pEC50 for enhancement of the specific binding of 12.5 nM Q86c-HL488 (conformational sensor nanobody) to NLuc-EGFR, NanoBRET on HEK293 cells [3]	Binder
9.02	8.45	9.17	human recombinant betacellulin (ligand, UniProt P35070 32-111, looked up, Betacellulin, human, recombinant; also called BTC; source: bought: R&D Systems (261-CE-010)) DGNSTRSPETNGLLCGDPEENCAATTTQSKRKGHFSRCPKQYKHYCIKGRCRFVVAEQTPSCVCDEGYIGARCERVDLFY
8.8	8.43	9.2	heparin binding EGF-like growth factor (ligand, UniProt Q99075 63-148, looked up, the other ligands are human recombinant proteins from R&D Systems; also called HB-EGF; Hb-EGF) DLQEADLDLLRVTLSSKPQALATPNKEEHGKRKKKGKGLGKKRDPCLRKYKDFCIHGECKYVKELRAPSCICHPGYHGERCHGLSL

— article PMC9726709, “Fluorescently tagged nanobodies and NanoBRET to study ligand-binding and agonist-induced conformational changes of full-length EGFR expressed in living cells” (Frontiers in Immunology, 2022)
